Where “and” joins values, the source holds several entries; their conditions need not be identical. Equal entries are not always repeated.
Test: Body weight and tolerability in RS4;11 xenograft mice
Format: in vivo, C.B-17 SCID mouse
Settings: for Percentage Body Weight Change post Dosing: single animals
Procedure: Female C.B.−17 SCID mice were purchased from Charles River Laboratories. Mice were 5–8 weeks old at the time of tumour implantation. All xenograft studies were conducted at our Association for the Assessment and Accreditation of Laboratory Animal Care accredited facility in Waltham, MA in accordance with ethical regulations described in the guidelines established by the internal Institutional Animal Care and Use Committee. The dendrimer conjugates were formulated in citrate/phosphate buffer pH 5.0, diluted 1:10 with 5% glucose containing 1% w/v Kolliphor HS15, and AZD4320 was formulated in 30% HP-β-CD and dosed as a weekly intravenous (IV) administration at a volume of 5 ml/kg at the indicated doses. Five million RS4;11, five million SUDHL-4 or five million OCI-LY-10 cells were injected subcutaneously in the right flank of mice in a volume of 0.1 ml. Tumour volumes (measured by caliper), animal body weight, and tumor condition were recorded twice weekly for the duration of the study. The tumour volume was calculated (taking length to be the longest diameter across the tumour and width to be the corresponding perpendicular diameter) using the formula: length (mm) x width (mm)^2/0.52. For efficacy studies, mice were randomized based on tumour volumes using stratified sampling and enrolled into control and treatment groups. Tumour growth inhibition from the start of treatment was quantified by measuring the difference in tumour volume between control and treated groups. Survival analysis was evaluated using Mantel-Cox test. Tumours were also taken for bioanalysis. […]
Supplementary Figure 13. Percent total body weight change in mouse RS4;11 xenograft model (n=6). Percent change in body weight of mice measured twice weekly after start of treatment with various doses of AZD0466. […]

Substance: AZD4320-MIDA-PEG2100 [AZD0466]
- Percentage Body Weight Change post Dosing (10 mg/kg (3mg/kg AZD4320), day 41 post implant): 0%
- Percentage Body Weight Change post Dosing (10 mg/kg (3mg/kg AZD4320), day 44 post implant): -1.896% and 0% and -3.365% and -4.5045% and -0.9756% and 0.4739%
- Percentage Body Weight Change post Dosing (10 mg/kg (3mg/kg AZD4320), day 48 post implant): 2.37% and 2.899% and -4.327% and 0% (2×) and -0.9479%
- Percentage Body Weight Change post Dosing (10 mg/kg (3mg/kg AZD4320), day 51 post implant): -2.8436% and -2.415% and -3.365% and -4.054% and -0.9756% and -3.318%
- Percentage Body Weight Change post Dosing (10 mg/kg (3mg/kg AZD4320), day 55 post implant): 1.4218% and 2.415% and -1.923% and 0.9009% and 1.951% and 0.4739%
- Percentage Body Weight Change post Dosing (10 mg/kg (3mg/kg AZD4320), day 58 post implant): -0.9479% and -0.4831% and -2.885% and 0% and 2.927% and 0.4739%
- Percentage Body Weight Change post Dosing (10 mg/kg (3mg/kg AZD4320), day 63 post implant): 5.6872% and 4.831% and -0.9615% and 3.6036% and 7.317% and 2.8436%
- Percentage Body Weight Change post Dosing (10 mg/kg (3mg/kg AZD4320), day 66 post implant): 4.2654% and 2.415% and -4.327% and 0.4505% and 3.415% and -1.4218%
- Percentage Body Weight Change post Dosing (10 mg/kg (3mg/kg AZD4320), day 70 post implant): 2.8436% and 1.449% and -1.923% and 3.153% and 5.366% and 0.9479%
- Percentage Body Weight Change post Dosing (10 mg/kg (3mg/kg AZD4320), day 73 post implant): 3.318% and 7.246% and -1.442% and 1.8018% and 6.829% and 0%
- Percentage Body Weight Change post Dosing (10 mg/kg (3mg/kg AZD4320), day 77 post implant): 3.791% and 4.348% and -2.404% and 2.7027% and 5.854% and 0%
- Percentage Body Weight Change post Dosing (10 mg/kg (3mg/kg AZD4320), day 80 post implant): 7.109% and 6.763% and 2.404% and 9.268% and 2.8436%
- Percentage Body Weight Change post Dosing (10 mg/kg (3mg/kg AZD4320), day 83 post implant): 6.635% and 1.932% and 1.923% and 8.78% and 1.4218%
- Percentage Body Weight Change post Dosing (34 mg/kg (10mg/kg AZD4320), day 41 post implant): 0%
- Percentage Body Weight Change post Dosing (34 mg/kg (10mg/kg AZD4320), day 44 post implant): -0.9346% and -3.922% and -3.6036% and -0.5155% and -2.427% and -2.913%
- Percentage Body Weight Change post Dosing (34 mg/kg (10mg/kg AZD4320), day 48 post implant): -2.336% and -1.471% and -2.252% and -1.546% and 0% and -1.456%
- Percentage Body Weight Change post Dosing (34 mg/kg (10mg/kg AZD4320), day 51 post implant): -2.804% and -6.373% and -5.405% and -1.031% and -4.369% and -1.942%
- Percentage Body Weight Change post Dosing (34 mg/kg (10mg/kg AZD4320), day 55 post implant): -1.869% and -0.4902% and -2.252% and 1.031% and -1.942% and -0.9709%
- Percentage Body Weight Change post Dosing (34 mg/kg (10mg/kg AZD4320), day 58 post implant): -1.402% and -3.431% and -3.153% and 1.546% and -2.913% and -0.9709%
- Percentage Body Weight Change post Dosing (34 mg/kg (10mg/kg AZD4320), day 63 post implant): 2.336% and -2.451% and 0% and 5.361% and 1.942% and 6.311%
- Percentage Body Weight Change post Dosing (34 mg/kg (10mg/kg AZD4320), day 66 post implant): -2.336% and -4.412% and 0% and 1.031% and 1.456% and 6.796%
- Percentage Body Weight Change post Dosing (34 mg/kg (10mg/kg AZD4320), day 70 post implant): -0.9346% and -5.392% and 0.4505% and 2.062% and 2.913% and 2.427%
- Percentage Body Weight Change post Dosing (34 mg/kg (10mg/kg AZD4320), day 73 post implant): 2.336% and -3.431% and 2.252% and 1.546% and 3.883% and 3.398%
- Percentage Body Weight Change post Dosing (34 mg/kg (10mg/kg AZD4320), day 77 post implant): 3.271% and -3.922% and 1.351% and 3.093% and 2.913% and 2.427%
- Percentage Body Weight Change post Dosing (34 mg/kg (10mg/kg AZD4320), day 80 post implant): 4.6729% and -1.471% and 7.207% and 5.155% and 3.883% and 6.796%
- Percentage Body Weight Change post Dosing (34 mg/kg (10mg/kg AZD4320), day 83 post implant): 4.206% and -1.961% and 7.658% and 4.639% and 4.854% and 9.709%
- Percentage Body Weight Change post Dosing (103 mg/kg (30mg/kg AZD4320), day 41 post implant): 0%
- Percentage Body Weight Change post Dosing (103 mg/kg (30mg/kg AZD4320), day 44 post implant): -2.415% and -9.211% and -6.161% and -5.804% and 0% and -2%
- Percentage Body Weight Change post Dosing (103 mg/kg (30mg/kg AZD4320), day 48 post implant): -0.9662% and -3.509% and -6.161% and -4.464% and -1.415% and -2.5%
- Percentage Body Weight Change post Dosing (103 mg/kg (30mg/kg AZD4320), day 51 post implant): -1.449% and -4.386% and -7.109% and -5.357% and -2.83% and -4%
- Percentage Body Weight Change post Dosing (103 mg/kg (30mg/kg AZD4320), day 55 post implant): 0.4831% and -0.4386% and -5.213% and -3.125% and 0% and -3.5%
- Percentage Body Weight Change post Dosing (103 mg/kg (30mg/kg AZD4320), day 58 post implant): -0.9662% and -1.754% and -5.213% and -4.464% and -0.9434% and -5.5%
- Percentage Body Weight Change post Dosing (103 mg/kg (30mg/kg AZD4320), day 63 post implant): 0.4831% and 1.842% and -3.791% and -2.232% and -1.887% and -2%
- Percentage Body Weight Change post Dosing (103 mg/kg (30mg/kg AZD4320), day 66 post implant): -1.932% and -0.4386% and -4.2654% and -2.679% and -0.9434% and -2.5%
- Percentage Body Weight Change post Dosing (103 mg/kg (30mg/kg AZD4320), day 70 post implant): -1.449% and 0.4386% and -3.318% and -1.786% and -0.9434% and -8%
- Percentage Body Weight Change post Dosing (103 mg/kg (30mg/kg AZD4320), day 73 post implant): 0.4831% and 1.316% and -1.896% and -4.018% and -2.83% and -4%
- Percentage Body Weight Change post Dosing (103 mg/kg (30mg/kg AZD4320), day 77 post implant): 0.4831% and 1.316% and 0% (2×) and -2.679% and -4%
- Percentage Body Weight Change post Dosing (103 mg/kg (30mg/kg AZD4320), day 80 post implant): 4.348% and 1.754% and 2.8436% and -1.786% and 0.4717% and -3%
- Percentage Body Weight Change post Dosing (103 mg/kg (30mg/kg AZD4320), day 83 post implant): 2.415% and 3.509% and 4.2654% and -2.232% and 0.4717% and -2%
- tolerability in xenograft mice (RS4;11 xenograft, all doses): well tolerated

— publication PMC7835349 (Communications Biology, 2021)
